Results from patent US20170198040A1 (Novartis, published 2017).

How the values were obtained:
[1] = target: T1, human CD32b expressed endogenously on human cells (human, UniProt P31994 43-310); experiment: flow cytometry on BJAB cells; biotinylated hIgG1 [N297A] antibody, streptavidin-PE, GMFI
T1 construct: whole, on cells; The background says that CD32b1 is the form on lymphoid cells and CD32b2 the form on myeloid cells; also called CD32b on primary human B cells, plasma cells, macrophages, BJAB, KARPAS422 and Daudi cells
T1 sequence (looked up): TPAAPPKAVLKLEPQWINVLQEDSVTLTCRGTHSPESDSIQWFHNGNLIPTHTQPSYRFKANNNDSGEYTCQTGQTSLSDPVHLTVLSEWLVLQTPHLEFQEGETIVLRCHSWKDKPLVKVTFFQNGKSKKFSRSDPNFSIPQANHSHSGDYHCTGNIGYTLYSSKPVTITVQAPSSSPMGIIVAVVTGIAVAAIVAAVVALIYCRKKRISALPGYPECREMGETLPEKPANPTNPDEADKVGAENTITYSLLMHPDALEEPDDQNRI
Procedure: The binding of huCD32b specific antibodies to the BJAB cell line was evaluated by flow cytometry. BJAB cells were collected and suspended in FACS Buffer (PBS1× containing 2% BSA, 2 mM EDTA), counted and suspended at 0.25×10⁶ cells per ml. 50'000 cells/well (200 μl) were then dispensed in V-bottomed 96 well plates. Plates were spun for 5 min at 1500 rpm and the supernatant discarded. […] Biotinylation of antibodies was performed using the Lightning-Link biotin conjugation kit (Type A) from Innova Biosciences (Cat. No 704-0010) according to the supplier's instructions. After 2 successive washes with FACS buffer, cells were suspended in 50 μl FACS buffer containing a 1/500 dilution of Streptavidin-PE (Invitrogen 521388) and further incubated for 20 min at 4° C. Cells were washed twice and suspended in 200 μl FACS buffer and acquired on a FACS Fortessa. The Geometric Mean Fluorescence (GMFI in the PE channel) was used as a measure of the binding intensity of each antibody.

[2] = target: T2, huCD64 (Fc gamma RI) expressed on stable CHO cells (human, UniProt P12314 16-374); experiment: flow cytometry on stable CHO cells expressing huCD64; hIgG1 [N297A] antibody, GMFI; the text ascribes this binding to the Fc portion
T2 construct: whole, on cells; also called CHO-huCD64
T2 sequence (P12314 16-374): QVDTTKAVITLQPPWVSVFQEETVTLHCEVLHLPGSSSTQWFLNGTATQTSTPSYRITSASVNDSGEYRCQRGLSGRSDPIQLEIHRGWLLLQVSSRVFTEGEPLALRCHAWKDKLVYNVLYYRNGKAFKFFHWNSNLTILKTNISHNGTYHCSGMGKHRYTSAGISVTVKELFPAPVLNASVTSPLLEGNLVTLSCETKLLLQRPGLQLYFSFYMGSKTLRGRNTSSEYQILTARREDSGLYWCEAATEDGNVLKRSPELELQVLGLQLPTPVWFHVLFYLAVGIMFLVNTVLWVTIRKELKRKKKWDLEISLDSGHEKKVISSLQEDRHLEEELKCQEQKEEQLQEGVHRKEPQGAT
Procedure: (§1) The binding of huCD32b specific antibodies was evaluated by flow cytometry using stable CHO cell lines expressing the low affinity human CD16 variants (i.e huCD16a or huCD16b variants) and the high affinity huCD64 (FcγRI). CHO cells transfected with huCD16a variants were also transfected with the common Fcγ chain in order to allow for surface expression. CHO cells were collected following detachment with PBS containing 2 mM EDTA and pelleted. Cell pellets were washed once in PBS and suspended in FACS Buffer (PBS1× containing 2% BSA, 2 mM EDTA and 0.1% NaN3), counted and suspended at 0.25×10⁶ cells per ml. 50'000 cells/well (200 μl) were then dispensed in V-bottomed 96 well plates. Plates were spun for 5 min at 1600 rpm and the supernatant discarded. […] After 3 successive washes with FACS buffer, cells were suspended in 50 μl FACS buffer containing a 1/100 dilution of the F(ab′)2 anti-human F(ab′)2-PE (Jackson Immunoresearch#109-116-097) and further incubated 30 min at 4° C. Cells were washed twice and suspended in 200 μl FACS buffer and acquired on a FACS Canto II (acquisition of 5000 cells in the live cell gate). The Geometric Mean Fluorescence (GMFI in the PE channel) was used as a measure of the binding intensity of each antibody.

[3] = target: T3, MW82 (huCD32a H131) (human, UniProt P12318); experiment: flow cytometry on stable CHO cells expressing huCD32a H131 (MW82); hIgG1 [N297A] antibody, GMFI
T3 sequence (receptor, looked up): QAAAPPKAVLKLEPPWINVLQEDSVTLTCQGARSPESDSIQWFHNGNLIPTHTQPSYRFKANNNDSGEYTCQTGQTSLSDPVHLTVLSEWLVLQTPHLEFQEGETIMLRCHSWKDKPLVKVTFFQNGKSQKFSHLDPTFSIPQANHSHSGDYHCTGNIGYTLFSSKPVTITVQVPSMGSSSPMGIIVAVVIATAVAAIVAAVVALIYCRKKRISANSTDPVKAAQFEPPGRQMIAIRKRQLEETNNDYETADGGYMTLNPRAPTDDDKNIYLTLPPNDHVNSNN
Procedure: as §1, with “HuCD32b and huCD32a have high degree” for “The binding”, “sequence homology. […]” for “huCD32b specific antibodies was evaluated by flow cytometry using stable CHO cell lines expressing the low affinity human CD16 variants (i.e huCD16a or huCD16b variants) and the high affinity huCD64 (FcγRI). CHO cells transfected with huCD16a variants were also transfected with the common Fcγ chain in order to allow for surface expression.”

[4] = target: T4, WT human CD32b1 expressed on stably transfected cells (human, UniProt P31994 43-310); experiment: flow cytometry on stable CHO cells expressing huCD32b (MW83); hIgG1 [N297A] antibody, GMFI
T4 construct: also called huCD32b; WT CD32b
T4 sequence: T1 sequence (looked up)
Procedure: as §1, with “HuCD32b and huCD32a have high degree” for “The binding”, “sequence homology. […]” for “huCD32b specific antibodies was evaluated by flow cytometry using stable CHO cell lines expressing the low affinity human CD16 variants (i.e huCD16a or huCD16b variants) and the high affinity huCD64 (FcγRI). CHO cells transfected with huCD16a variants were also transfected with the common Fcγ chain in order to allow for surface expression.”

[5] = target: T1, human CD32b expressed endogenously on …; experiment: flow cytometry titration (GMFI), biotinylated IgG1 [N297A] on purified primary human B cells, CD20+ gate
Procedure: Plates were spun for 5 min at 1500 rpm and the supernatant discarded. […] Biotinylation of antibodies was performed using the Lightning-Link biotin conjugation kit (Type A) from Innova Biosciences (Cat. No 704-0010) according to the supplier's instructions. […] Cells were washed twice and suspended in 200 μl FACS buffer and acquired on a FACS Fortessa.

[6] = target: T4, WT human CD32b1 expressed on stably …; experiment: flow cytometry, Alexa-647 labelled hIgG1 [N297A] antibody, ΔMFI; stable BJAB cells expressing huCD32b
[7] = target: T5, huCD32b-deglyco (human, UniProt P31994 43-222, limits assumed, deglycosylated (deglyco) (so in the source)); experiment: SPR (Biacore T200), IgG amine-coupled on the chip, huCD32b-deglyco analyte 0.61-5000 nM, 1:1 binding model; single experiment
T5 construct: Soluble analyte of the SPR assay; also called huCD32b receptor (SPR analyte); human CD32b
T5 sequence: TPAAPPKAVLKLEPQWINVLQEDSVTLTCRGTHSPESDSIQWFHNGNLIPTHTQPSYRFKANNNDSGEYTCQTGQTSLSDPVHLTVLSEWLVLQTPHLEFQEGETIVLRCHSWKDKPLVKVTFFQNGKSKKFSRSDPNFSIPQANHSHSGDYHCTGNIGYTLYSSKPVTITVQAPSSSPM
Procedure: (§2) Three independent direct binding assays with IgGs covalently immobilized on the biosensor and huCD32b receptor serving as analyte were performed to determine the binding affinities of the IgGs for huCD32b. Kinetic data were acquired by subsequent injections of analyte dilution series on all flow cells. Flow cell 1 (chip 1) served as a reference.
(§3) A dilution series of huCD32b-deglyco, 0.61-5000 nM (1:2 dilution series) in running buffer was injected over the surface (flow rate: 30 μl/min, association time: 60 sec, dissociation time: 120 sec). The chip surface was regenerated with one basic wash step before each analyte injection (30 μl/min; contact time: 30 sec, stabilization period: 250 sec). Data were evaluated using the Biacore T200 evaluation software version 1.0. The raw data were double referenced, i.e. the response of the measuring flow cell was corrected for the response of the reference flow cell, and in a second step the response of a blank injection was subtracted. Outlier sensorgrams were removed if necessary. The sensorgrams were fitted by applying a 1:1 binding model to calculate kinetic rate constants and dissociation equilibrium constants. Rmax was set at global whereas RI was fitted locally. Data were processed individually for each run. The generated values were used to calculate average values and standard deviations of the respective kinetic constants.

[8] = target: T5, huCD32b-deglyco; experiment: SPR (Biacore T200), IgG amine-coupled on the chip, huCD32b-deglyco analyte 0.61-5000 nM, 1:1 binding model; mean and standard deviation of the runs
Procedure: as §2, §3

B1: NOV0308_N297A (antibody, human IgG1, lambda, N297A)
heavy: not shown
light: DIELTQPPSVSVSPGQTASITCSGDNLGSKYVHWYQQKPGQAPVLVIYDDNKRPSGIPERFSGSNSGNTATLTISGTQAEDEADYYCQSWTLGNWVFGGGTKLTVLGQPKAAPSVTLFPPSSEELQANKATLVCLISDFYPGAVTVAWKADSSPVKAGVETTTPSKQSNNKYAASSYLSLTPEQWKSHRSYSCQVTHEGSTVEKTVAPTECS
notes: also called NOV0308 on a human IgG1 [N297A] scaffold
With B1 the “binding affinity (printed 'BJABs:')” value [1] was 4.2 nM and the binding result [2] was “binds”.

B2: NOV1218 (antibody, human IgG1, lambda, N297A)
heavy chain: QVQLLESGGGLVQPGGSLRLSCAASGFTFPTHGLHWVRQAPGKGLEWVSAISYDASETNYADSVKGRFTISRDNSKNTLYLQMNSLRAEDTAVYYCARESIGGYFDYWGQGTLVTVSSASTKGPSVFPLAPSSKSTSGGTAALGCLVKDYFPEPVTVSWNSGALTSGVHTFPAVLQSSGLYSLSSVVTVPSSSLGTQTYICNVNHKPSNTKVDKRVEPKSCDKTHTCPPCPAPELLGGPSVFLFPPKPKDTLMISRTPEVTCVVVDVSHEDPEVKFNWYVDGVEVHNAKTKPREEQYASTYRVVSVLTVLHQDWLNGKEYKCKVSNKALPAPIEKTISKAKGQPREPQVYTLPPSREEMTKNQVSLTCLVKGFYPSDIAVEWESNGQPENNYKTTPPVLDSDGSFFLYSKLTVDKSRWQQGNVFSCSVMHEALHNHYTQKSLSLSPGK
light chain: SYELTQPLSVSVALGQTARITCSGDALGKNTVSWYQQKPGQAPVLVIYDDTDRPSGIPERFSGSNSGNTATLTISRAQAGDEADYYCSSTDLSTVVFGGGTKLTVLGQPKAAPSVTLFPPSSEELQANKATLVCLISDFYPGAVTVAWKADSSPVKAGVETTTPSKQSNNKYAASSYLSLTPEQWKSHRSYSCQVTHEGSTVEKTVAPTECS
notes: also called NOV1218_N297A; NOV1218 N297A
With B2 the “binding affinity (printed 'BJABs:')” value [1] was 19 nM, the binding result [3] was “binds” and the binding result [2] was “binds”.

B3: NOV1219 (antibody, human IgG1, lambda, N297A)
heavy chain: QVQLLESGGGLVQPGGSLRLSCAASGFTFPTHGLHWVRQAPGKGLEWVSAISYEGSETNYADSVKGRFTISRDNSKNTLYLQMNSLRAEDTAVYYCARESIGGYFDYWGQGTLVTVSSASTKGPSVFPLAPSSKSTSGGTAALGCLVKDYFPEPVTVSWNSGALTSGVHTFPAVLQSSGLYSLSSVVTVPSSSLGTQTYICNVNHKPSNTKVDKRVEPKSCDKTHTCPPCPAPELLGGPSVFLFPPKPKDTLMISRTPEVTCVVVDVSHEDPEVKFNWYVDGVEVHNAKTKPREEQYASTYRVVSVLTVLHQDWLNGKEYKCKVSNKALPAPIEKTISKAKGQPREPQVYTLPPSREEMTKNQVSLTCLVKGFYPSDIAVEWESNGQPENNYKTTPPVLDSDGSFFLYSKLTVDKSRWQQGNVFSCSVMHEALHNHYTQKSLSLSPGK
light chain: B2 light chain
notes: also called NOV1219_N297A; NOV1219 on a human IgG1 [N297A] scaffold
In the case of B3, the “binding affinity (printed 'BJABs:')” value [1] is reported as 110 nM, the “EC50 (read off the curve)” value [4] is reported as ~30 nM and the binding result [3] is reported as “no binding (tested: 1000 nM)”. B3: binds [2].

B4: NOV0281_N297A (antibody, human IgG1, lambda, N297A)
heavy: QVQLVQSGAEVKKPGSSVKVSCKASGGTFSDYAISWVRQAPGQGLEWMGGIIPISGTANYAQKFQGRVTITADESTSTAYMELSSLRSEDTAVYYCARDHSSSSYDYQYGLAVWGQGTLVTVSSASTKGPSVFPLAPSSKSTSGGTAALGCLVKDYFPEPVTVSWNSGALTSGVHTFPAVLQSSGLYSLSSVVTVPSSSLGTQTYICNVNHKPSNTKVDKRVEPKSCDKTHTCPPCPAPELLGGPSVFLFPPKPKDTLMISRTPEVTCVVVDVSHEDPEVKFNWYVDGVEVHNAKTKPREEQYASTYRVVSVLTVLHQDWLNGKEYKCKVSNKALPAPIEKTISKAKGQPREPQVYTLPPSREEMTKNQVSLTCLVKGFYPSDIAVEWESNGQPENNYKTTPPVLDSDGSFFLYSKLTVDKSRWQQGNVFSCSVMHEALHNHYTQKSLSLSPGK
light: DIELTQPPSVSVSPGETASITCSGDKLGDYYVHWYQQKPGQAPVLVIYQDSKRPSGIPERFSGSNSGNTATLTISGTQAEDEADYYCGATDLSPWSIVFGGGTKLTVLGQPKAAPSVTLFPPSSEELQANKATLVCLISDFYPGAVTVAWKADSSPVKAGVETTTPSKQSNNKYAASSYLSLTPEQWKSHRSYSCQVTHEGSTVEKTVAPTECS
notes: also called NOV0281 on a human IgG1 [N297A] scaffold
In the case of B4, the “binding affinity (printed 'BJABs:')” value [1] is reported as 2.4 nM, the binding affinity [5] is reported as 5.4 nM and the binding result [3] is reported as “binds”. B4: binds [2].

B5: NOV1216_N297A (antibody, human IgG1, lambda, N297A)
heavy: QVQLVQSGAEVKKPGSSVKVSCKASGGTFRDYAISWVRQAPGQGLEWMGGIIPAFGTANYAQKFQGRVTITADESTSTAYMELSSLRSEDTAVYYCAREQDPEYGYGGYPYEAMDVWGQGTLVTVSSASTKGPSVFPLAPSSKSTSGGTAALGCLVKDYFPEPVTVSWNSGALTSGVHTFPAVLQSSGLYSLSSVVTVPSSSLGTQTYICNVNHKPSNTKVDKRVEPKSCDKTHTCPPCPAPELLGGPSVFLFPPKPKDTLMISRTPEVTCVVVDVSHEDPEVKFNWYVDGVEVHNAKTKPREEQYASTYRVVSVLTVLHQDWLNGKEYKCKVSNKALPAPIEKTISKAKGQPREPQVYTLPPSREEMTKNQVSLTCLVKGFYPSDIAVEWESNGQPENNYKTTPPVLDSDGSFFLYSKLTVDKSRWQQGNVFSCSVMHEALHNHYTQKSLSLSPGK
light: SYELTQPLSVSVALGQTARITCSGDNIPQHSVHWYQQKPGQAPVLVIYDDTERPSGIPERFSGSNSGNTATLTISRAQAGDEADYYCSSWDSSMDSVVFGGGTKLTVLGQPKAAPSVTLFPPSSEELQANKATLVCLISDFYPGAVTVAWKADSSPVKAGVETTTPSKQSNNKYAASSYLSLTPEQWKSHRSYSCQVTHEGSTVEKTVAPTECS
notes: Human IgG1 with N297A (Fc silent); also called Fc silent NOV1216
For B5, the “binding affinity (printed 'BJABs:')” value [1] was 0.7 nM, the binding affinity [5] was 1.4 nM and the binding result [2] was “binds”.

B6: NOV2112 N297A (antibody, human IgG1, lambda, N297A)
heavy chain: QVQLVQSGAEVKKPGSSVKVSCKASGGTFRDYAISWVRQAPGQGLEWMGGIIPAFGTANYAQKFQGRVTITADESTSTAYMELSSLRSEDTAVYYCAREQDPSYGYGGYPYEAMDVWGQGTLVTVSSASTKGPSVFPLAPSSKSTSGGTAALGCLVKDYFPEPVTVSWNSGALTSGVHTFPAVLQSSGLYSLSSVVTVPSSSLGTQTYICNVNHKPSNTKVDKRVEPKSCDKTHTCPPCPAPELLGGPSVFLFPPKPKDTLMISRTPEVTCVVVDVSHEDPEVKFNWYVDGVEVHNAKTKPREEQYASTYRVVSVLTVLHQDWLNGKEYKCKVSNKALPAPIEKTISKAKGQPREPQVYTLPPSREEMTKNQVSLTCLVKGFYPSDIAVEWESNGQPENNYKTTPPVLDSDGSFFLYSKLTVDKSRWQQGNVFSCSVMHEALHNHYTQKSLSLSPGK
light chain: B5 light
B6: binds [6].

B7: NOV2107_N297A (antibody, human IgG1, lambda, N297A)
heavy: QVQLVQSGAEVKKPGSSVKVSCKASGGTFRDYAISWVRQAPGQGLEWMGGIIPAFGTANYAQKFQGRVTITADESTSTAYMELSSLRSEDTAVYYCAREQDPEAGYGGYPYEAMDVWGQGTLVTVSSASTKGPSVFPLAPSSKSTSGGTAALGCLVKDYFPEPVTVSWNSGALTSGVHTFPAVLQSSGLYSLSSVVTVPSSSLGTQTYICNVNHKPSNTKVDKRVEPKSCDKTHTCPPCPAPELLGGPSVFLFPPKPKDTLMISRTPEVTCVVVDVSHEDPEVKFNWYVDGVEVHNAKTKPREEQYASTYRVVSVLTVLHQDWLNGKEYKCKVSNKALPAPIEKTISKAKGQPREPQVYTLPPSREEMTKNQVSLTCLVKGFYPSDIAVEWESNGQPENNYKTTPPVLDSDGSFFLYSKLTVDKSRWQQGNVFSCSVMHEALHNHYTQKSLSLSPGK
light: B5 light
notes: CDR-H3 mutant of NOV1216; human IgG1 with N297A; also called Fc silent N297A variant of NOV2107
B7: binds [6].

B8: afucosylated NOV2108 (antibody, human IgG1, lambda)
heavy: not shown
light: B5 light
modifications: afucosylated: N-glycan structure lacking core fucose
notes: also called NOV2108, afucosylated antibody; NOV2108 (afucosylated format)
Work on B8 yielded a Kd [7] of 16 nM, a koff [7] of 0.11 s⁻¹ and a kon [7] of 6.8e+06 M⁻¹ s⁻¹.

B9: NOV2108_N297A (antibody, human IgG1, lambda, N297A)
heavy: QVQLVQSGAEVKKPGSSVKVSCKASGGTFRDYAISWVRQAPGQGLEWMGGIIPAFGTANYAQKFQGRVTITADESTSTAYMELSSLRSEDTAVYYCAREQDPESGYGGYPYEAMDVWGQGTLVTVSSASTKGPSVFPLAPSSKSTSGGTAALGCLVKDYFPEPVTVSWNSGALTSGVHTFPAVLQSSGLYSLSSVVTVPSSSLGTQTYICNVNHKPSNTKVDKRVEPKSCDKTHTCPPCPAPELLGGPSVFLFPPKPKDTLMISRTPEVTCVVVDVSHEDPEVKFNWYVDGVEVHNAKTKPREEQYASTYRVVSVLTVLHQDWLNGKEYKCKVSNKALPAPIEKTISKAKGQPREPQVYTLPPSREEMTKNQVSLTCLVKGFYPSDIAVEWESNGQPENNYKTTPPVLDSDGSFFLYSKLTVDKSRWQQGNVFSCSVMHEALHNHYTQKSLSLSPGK
light: B5 light
notes: CDR-H3 mutant of NOV1216; human IgG1 with N297A; Alexa Fluor 647-labelled in flow cytometry; also called Fc silent NOV2108 [N297A]
For B9, the Kd [8] was 18 nM, the koff [8] was 0.29 s⁻¹ and the kon [8] was 1.5e+07 M⁻¹ s⁻¹.
